{"source": "paper PMC6713497", "key": {"[1]": {"biological_target": "AxqNOR Val495Ala-BRIL (Alcaligenes xylosoxidans)", "experiment": "cryo-EM structure; single-particle cryo-EM of detergent-solubilised qNOR-BRIL (50 mM tris, 150 mM NaCl, 0.05% DTM; wild type pH 7.0 at 3 mg/ml, Val495Ala pH 7.5 at 5 mg/ml), C2 symmetry imposed"}, "[2]": {"biological_target": "qNOR from Neisseria meningitidis (NmqNOR), wild type (Neisseria meningitidis)", "experiment": "cryo-EM structure; cryo-EM dataset of wild-type NmqNOR, 9 Å reconstruction (fig. S1); conditions not given"}}, "data": [{"substance": "AxqNOR Val495Ala-BRIL (enzyme)", "values": [{"measurement": "stoichiometry N", "setting": "[1]", "value": 2}]}, {"substance": "qNOR from Neisseria meningitidis (NmqNOR), wild type (enzyme)", "values": [{"measurement": "stoichiometry N", "setting": "[2]", "value": 2}]}]}
